Test results as given in article PMC6748103, “SPOP suppresses prostate cancer through regulation of CYCLIN E1 stability” (Cell Death and Differentiation, 2018).

Target: T1, GST-CCNE1 (UniProt P24864 1-410)
T1 construct: CYCLIN E1 (CCNE1), expressed in bacteria; also called GST-tagged CCEN1; GST-tagged CYCLIN E1
Experiment: pull-down; GST pull-down; His-SPOP and GST-CCNE1 expressed in bacteria and affinity purified
Settings: both partners purified

T1 sequence (P24864 whole entry): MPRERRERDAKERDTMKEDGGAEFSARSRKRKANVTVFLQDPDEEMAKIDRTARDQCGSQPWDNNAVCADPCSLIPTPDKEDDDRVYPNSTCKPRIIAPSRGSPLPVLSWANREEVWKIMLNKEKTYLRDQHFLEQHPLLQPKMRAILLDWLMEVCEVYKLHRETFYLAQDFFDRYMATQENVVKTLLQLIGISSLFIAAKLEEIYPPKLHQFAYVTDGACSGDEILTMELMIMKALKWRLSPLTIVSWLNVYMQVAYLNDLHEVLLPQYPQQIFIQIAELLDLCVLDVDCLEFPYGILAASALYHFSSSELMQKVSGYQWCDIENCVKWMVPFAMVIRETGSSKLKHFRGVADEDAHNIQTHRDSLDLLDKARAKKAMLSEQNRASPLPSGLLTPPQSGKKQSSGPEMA

- binding result: binds
B1: His-tagged SPOP (natural protein, UniProt O43791 1-374, looked up)
chain: MSRVPSPPPPAEMSSGPVAESWCYTQIKVVKFSYMWTINNFSFCREEMGEVIKSSTFSSGANDKLKWCLRVNPKGLDEESKDYLSLYLLLVSCPKSEVRAKFKFSILNAKGEETKAMESQRAYRFVQGKDWGFKKFIRRDFLLDEANGLLPDDKLTLFCEVSVVQDSVNISGQNTMNMVKVPECRLADELGGLWENSRFTDCCLCVAGQEFQAHKAILAARSPVFSAMFEHEMEESKKNRVEINDVEPEVFKEMMCFIYTGKAPNLDKMADDLLAAADKYALERLKVMCEDALCSNLSVENAAEILILADLHSADQLKTQAVDFINYHASDVLETSGWKSMVVSHPHLVAEAYRSLASAQCPFLGPPRKRLKQS
notes: SPOP, expressed in bacteria; also called His-SPOP
